Where no end group is shown, it is not given here. [ ]: non-standard residue; d: D form. Aib = CC(C)(N)C(=O)O
Assays:
Assay in all cases: cell-based or functional assay
human glucagon receptor = human glucagon receptor (human, UniProt P47871 26-477)
[1] = biological target: T1, human glucose-dependent insulinotropic polypeptide receptor (human, UniProt P48546 22-466)
T1 sequence (looked up): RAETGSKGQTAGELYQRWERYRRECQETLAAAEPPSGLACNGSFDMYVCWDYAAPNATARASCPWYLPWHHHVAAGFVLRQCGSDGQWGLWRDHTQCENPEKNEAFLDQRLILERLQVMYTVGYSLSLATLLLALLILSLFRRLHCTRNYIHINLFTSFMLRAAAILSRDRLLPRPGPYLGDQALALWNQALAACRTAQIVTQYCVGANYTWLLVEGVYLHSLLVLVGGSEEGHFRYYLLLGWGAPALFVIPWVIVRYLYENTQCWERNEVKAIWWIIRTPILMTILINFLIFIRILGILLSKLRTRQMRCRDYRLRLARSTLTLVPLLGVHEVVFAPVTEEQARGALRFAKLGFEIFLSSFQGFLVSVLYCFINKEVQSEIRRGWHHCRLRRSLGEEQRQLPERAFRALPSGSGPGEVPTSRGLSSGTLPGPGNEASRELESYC

[2] = biological target: human glucagon-like peptide 1 receptor (human, UniProt P43220 24-463)

human glucagon receptor, sequence (P47871 26-477): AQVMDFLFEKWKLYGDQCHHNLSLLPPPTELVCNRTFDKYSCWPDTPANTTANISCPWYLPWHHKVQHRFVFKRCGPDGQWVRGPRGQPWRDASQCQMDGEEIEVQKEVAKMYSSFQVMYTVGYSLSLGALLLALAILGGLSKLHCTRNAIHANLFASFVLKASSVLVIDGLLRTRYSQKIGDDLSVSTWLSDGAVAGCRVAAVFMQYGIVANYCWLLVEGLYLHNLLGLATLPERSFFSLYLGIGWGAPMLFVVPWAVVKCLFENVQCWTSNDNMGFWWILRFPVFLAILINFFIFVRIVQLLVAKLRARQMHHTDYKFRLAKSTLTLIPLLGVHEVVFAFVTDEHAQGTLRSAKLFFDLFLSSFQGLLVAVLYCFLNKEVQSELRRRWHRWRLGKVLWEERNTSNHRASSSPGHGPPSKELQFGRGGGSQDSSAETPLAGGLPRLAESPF

Binder	hGcgR CRE Luc EC50 (pM) (human glucagon receptor)	hGIPR CRE Luc EC50 (pM) [1] [pM]	hGLP-1R CRE Luc EC50 (pM) [2] [pM]
H[Aib]HGTFTSDYSILLEKQAAQEFVQWLLEGGPSSGAPPPS-OH (not fully specified (residue 16); printed as H-Aib-HGTFTSDYSILLE-K[(2S)-2-amino-6-[[(2S)-2-amino-6-[[(4S)-4-carboxy-4-(17-carboxyheptadecanoylamino)butanoyl]amino]hexanoyl]amino]hexanoyl]-QAAQEFVQWLLEGGPSSGAPPPS-OH) [Compound No. 52]	14.9	6.6	0.8
H[Aib]HGTFTSDYSILLEKQAAEEFVQWLLEGGPSSGAPPPS-NH2 (not fully specified (residue 16); printed as H-Aib-HGTFTSDYSILLE-K[(2S)-2-amino-6-[[(2S)-2-amino-6-[[(4S)-4-carboxy-4-(19-carboxynonadecanoylamino)butanoyl]amino]hexanoyl]amino]hexanoyl]-QAAEEFVQWLLEGGPSSGAPPPS-NH2) [Compound No. 49]	3.5	2.1	1.4
H[Aib]HGTFTSDYSILLEKQAAQEFVQWLLEGGPSSGAPPPS-OH (not fully specified (residue 16); printed as H-Aib-HGTFTSDYSILLE-K[(2S)-2-amino-6-[[(2S)-2-amino-6-[[(4S)-4-carboxy-4-(19-carboxynonadecanoylamino)butanoyl]amino]hexanoyl]amino]hexanoyl]-QAAQEFVQWLLEGGPSSGAPPPS-OH) [Compound No. 53]	22	4.8	2.7
H[Aib]HGTFTSDYSILLEKQAAEEFVQWLLEGGPSSGAPPPS-OH (not fully specified (residue 16); printed as H-Aib-HGTFTSDYSILLE-K[(2S)-2-amino-6-[[(2S)-2-amino-6-[[(4S)-4-carboxy-4-(17-carboxyheptadecanoylamino)butanoyl]amino]hexanoyl]amino]hexanoyl]-QAAEEFVQWLLEGGPSSGAPPPS-OH) [Compound No. 51]	79.9	1.8	0.7
H[Aib]HGTFTSDYSILLEKQAAREFVQWLLEGGPSSGAPPPS-OH (not fully specified (residue 16); printed as H-Aib-HGTFTSDYSILLE-K[(2S)-2-amino-6-[[(2S)-2-amino-6-[[(4S)-4-carboxy-4-(19-carboxynonadecanoylamino)butanoyl]amino]hexanoyl]amino]hexanoyl]-QAAREFVQWLLEGGPSSGAPPPS-OH) [Compound No. 55]	18.8	7.5	2
H[Aib]HGTFTSDYSILLEKQAAREFVQWLLEGGPSSGAPPPS-OH (not fully specified (residue 16); printed as H-Aib-HGTFTSDYSILLE-K[(2S)-2-amino-6-[[(2S)-2-amino-6-[[(4S)-4-carboxy-4-(17-carboxyheptadecanoylamino)butanoyl]amino]hexanoyl]amino]hexanoyl]-QAAREFVQWLLEGGPSSGAPPPS-OH) [Compound No. 54]	22.8	28	1.5
H[Aib]HGTFTSDYSILLEKQAAEEFVQWLLEGGPSSGAPPPS-OH (not fully specified (residue 16); printed as H-Aib-HGTFTSDYSILLE-K[(2S)-2-amino-6-[[(2S)-2-amino-6-[[(4S)-4-carboxy-4-(19-carboxynonadecanoylamino)butanoyl]amino]hexanoyl]amino]hexanoyl]-QAAEEFVQWLLEGGPSSGAPPPS-OH) [Compound No. 50]	18.5	1.9	1
